A word on the Kd: it is a measure of binding affinity in units of concentration. Low values mean a tighter complex, high ones a looser complex. By stoichiometry N is commonly meant a count of units in the complex or per binding partner.

The results in this text go back to article PMC1839085, “Crystal structures of an Extracytoplasmic Solute Receptor from a TRAP transporter in its open and closed forms reveal a helix-swapped dimer requiring a cation for α-keto acid binding” (BMC Structural Biology, 2007).

Series [1] deals with the molecule itself. Briefly: crystal structure; unliganded SeMet TakP, space group P2(1), four molecules in the asymmetric unit; hanging drop, 293 K, 100 mM sodium citrate pH 5.8-6.0, 1.4-1.6 M ammonium sulfate; solved by MAD.
Series [2] concerns the molecule itself. As to the kind of experiment: cross-linking; 3.2 and 6.3 μM TakP with 50 mM glutaraldehyde, 20 mM Na2HPO4/KH2PO4 pH 7.8, 18°C, 3 hours; denaturing 10% Nu-PAGE gel; dimer to monomers.
Series [3] deals with the molecule itself. Briefly: SEC; gel filtration on Superdex 200 26/60 in 20 mM Tris HCl pH 8.0, 50 mM NaCl, calibrated with commercial standards. For orientation: In gel filtration, larger molecules generally elute earlier.

B1: Selenomethionine-labeled TakP from Rhodobacter sphaeroides (natural protein, Rhodobacter sphaeroides 2.4.1)
chain: QSAPKVTWRLASSFPKSLDTIFGGAEVLSKMLSEATDGNFQIQVFSAGELVPGLQAADAVTEGTVECCHTVGYYYWGKDPTFALAAAVPFSLSARGINAWHYHGGGIDLYNEFLSQHNIVAFPGGNTGVQMGGWFRREINTVADMQGLKMRVGGFAGKVMERLGVVPQQIAGGDIYPALEKGTIDATEWVGPYDDEKLGFFKVAPYYYYPGWWEGGPTVHFMFNKSAYEGLTPTYQSLLRTACHAADANMLQLYDWKNPTAIKSLVAQGTQLRPFSPEILQACFEAANEVYAEMEASNPAFKKIWDSIKAFRSEHYTWAQIAEYNYDTFMMVQQNAGKL
modifications: selenomethionine (SeMet) labeled
notes: TakP (previously named SmoM), Rhodobacter sphaeroides 2.4.1; same construct as m1 (pET101/D-TOPO, 1099 bp fragment), labeled with selenomethionine; final model holds four molecules from residue 28 or 32 to 365; Same construct as m1, with methionines replaced by selenomethionine; used for the unliganded MAD structure (PDB 2HZK); also called SeMet TakP; selenomethionine labeled protein; source: E. …
B1: the binding result in series [1] is on record as “binds”.

B2: TakP (TRAP transporter alpha-keto acid binding P subunit) from Rhodobacter sphaeroides (natural protein, Rhodobacter sphaeroides 2.4.1)
chain: QSAPKVTWRLASSFPKSLDTIFGGAEVLSKMLSEATDGNFQIQVFSAGELVPGLQAADAVTEGTVECCHTVGYYYWGKDPTFALAAAVPFSLSARGINAWHYHGGGIDLYNEFLSQHNIVAFPGGNTGVQMGGWFRREINTVADMQGLKMRVGGFAGKVMERLGVVPQQIAGGDIYPALEKGTIDATEWVGPYDDEKLGFFKVAPYYYYPGWWEGGPTVHFMFNKSAYEGLTPTYQSLLRTACHAADANMLQLYDWKNPTAIKSLVAQGTQLRPFSPEILQACFEAANEVYAEMEASNPAFKKIWDSIKAFRSEHYTWAQIAEYNYDTFMMVQQNAGKL
notes: TakP (previously named SmoM), extracytoplasmic solute receptor (P subunit) of a TRAP transporter, Rhodobacter sphaeroides 2.4.1; gene amplified from genomic DNA as a 1099 bp fragment and cloned into pET101/D-TOPO; crystal models span residues 28 or 32 to 365; The 1099 bp fragment would fit the whole gene of 365 codons, so the signal peptide may be in the construct; The theoretical molecular …
In series [2], B2 registered a Kd of less than 300 nM. For the same protein, in series [3], the “stoichiometry N” value came to 2.
